*1 amine or outer side, *2 acyl side, *3 side chain or, on linkers, in order; H or OH if unused. Primed or numbered codes have the meaning given here. Where no end group is shown, it is not given here. [ ]: non-standard residue; d: D form. Als″ = residue of 5-aminolevulinic acid, O=C(CCC(=O)[*:2])CN[*:1]

Experiment [1] has as its system TF-1 cells. Kind of experiment: Proliferation assay with TF-1 cells by MTT (monomers). Particulars: MTT-assay data, dose-response calculated with GraphPad. The experiment is classed as cell-based. As for the experimental part:
Proliferation assay with TF-1 cells by MTT
TF-1 Cells in logarithmic growth phase (˜2.10^5-1.10^6 cells/ml; RPMI medium; 20% fetal calf serum; supplemented with Penicillin, streptomycin, L-Glutamine; 0.5 ng/ml Interleukin 3) are washed (centrifuge 5 min. 1500 rpm and resuspend in RPMI complete without IL3 at 500.000 cells/ml) and precultured before start of the assay for 24 h without IL-3. At the next day the cells are seeded in 24- or 96-well plates usually using at least 6 concentrations and 4 wells per concentration containing at least 10.000 cells/well per agent to be tested. Each experiment includes controls comprising recombinant EPO as a positive control agent and wells without addition of cytokine as negative control agent. Peptides and EPO-controls are prediluted in medium to the desired concentrations and added to the cells, starting a culture period of […] under standard culture conditions (37° C., 5% carbon dioxide in the gas phase, atmosphere saturated with water). Concentrations always refer to the final concentration of agent in the well during this 4-day culture period.
At day 4, prior to start of the analysis, a dilution series of a known number of TF-1 cells is prepared in a number of wells (01250015000/10000120000150000 cells/well in 100 μl medium). These wells are treated in the same way as the test wells and later provide a calibration curve from which cell numbers can be determined. Having set up these reference wells, MTS and PMS from the MTT proliferation kit (Promega, CellTiter 96 Aqueous non-radioactive cell proliferation assay) are thawed in a 37° C. waterbath and 100 μl of PMS solution are added to 2 ml of MTS solution. 20 μl of this mixture are added to each well of the assay plates and incubated at 37° C. for 3-4 h. 25 μl of 10% sodium dodecylsulfate in water are added to each well prior to measurement E492 in an ELISA Reader.
Using graphical evaluations as shown in FIGS. 17 and 18 based on calculations of the dose-response relationship using the program GraphPad the following EC50 values were determined on the basis of MTT-assay data: […]

For experiment [2], the target named is T1, EPO receptor (on TF-1 cells) (UniProt P19235 25-508, limits assumed).
T1 sequence (looked up): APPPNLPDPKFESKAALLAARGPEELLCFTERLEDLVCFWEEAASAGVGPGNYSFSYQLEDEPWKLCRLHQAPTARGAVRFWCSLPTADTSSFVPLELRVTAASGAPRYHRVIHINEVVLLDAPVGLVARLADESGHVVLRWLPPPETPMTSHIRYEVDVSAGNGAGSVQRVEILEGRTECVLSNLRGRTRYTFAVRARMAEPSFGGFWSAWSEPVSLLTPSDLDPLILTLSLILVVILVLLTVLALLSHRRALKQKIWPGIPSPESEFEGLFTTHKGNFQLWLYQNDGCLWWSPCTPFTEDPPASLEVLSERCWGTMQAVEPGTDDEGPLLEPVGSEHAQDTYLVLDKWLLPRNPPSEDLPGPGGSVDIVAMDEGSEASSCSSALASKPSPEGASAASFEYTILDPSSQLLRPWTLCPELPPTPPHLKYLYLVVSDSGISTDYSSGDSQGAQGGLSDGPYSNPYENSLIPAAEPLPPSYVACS
Kind of experiment: cell-based or functional assay.

As a reminder, the EC50 is the concentration that produces a half-maximal response. On to GGTYSCHF-(Als)-LTWVCKKQGG [SEQ ID NO 8], for which, in experiment [1], the 50% effective concentration (EC50) is 5 µM. The same measure, in the same setting: the value for GGTYSCHF-(Als)-LTWVCKPQGG [SEQ ID NO 7] was 5.26 µM.

Regarding GGTYSCHFGGLTWVCKPQGG, the EC50 values entry in experiment [1] is given as “no activity”. With GGTYSCHF[Als″]LTWVCKPQGG (cysteine pairing not given here) [SEQ ID NO 7: GGTYSCHF-(Als)-LTWVCKPQGG], in experiment [2], the “EC50, TF-1 cell proliferation (MTT assay)” value (shortened to “EC50 … (MTT assay)”) came to 5.26 µM.

As for GGTYSCHFGKLTWVCKPQGG [SEQ ID NO 4: GGTYSCHFGKLTWVCKPQGG], the “EC50 … (MTT assay)” value in experiment [2] worked out at 4.66 µM.

For the molecule GGTYSCHFGRLTWVCKKQGG [SEQ ID NO 6: GGTYSCHFGRLTWVCKKQGG], in experiment [2], the “EC50 … (MTT assay)” value was 4.97 µM.

As to GGTYSCHF[Als″]LTWVCKKQGG (cysteine pairing not given here) [SEQ ID NO 8: GGTYSCHF-(Als)-LTWVCKKQGG], the “EC50 … (MTT assay)” value in experiment [2] was found to be 5 µM. Take GGTYSCHFGRLTWVCKPQGG [SEQ ID NO 5: GGTYSCHFGRLTWVCKPQGG]: the “EC50 … (MTT assay)” value in experiment [2] is 5.16 µM. Take GGTYSCHFGPLTWVCKKQGG: in experiment [2], the “EC50 … (MTT assay)” value came out at 2.52 µM. In the case of GGTYSCHFAKLTWVCKKQGG, the “EC50 … (MTT assay)” value in experiment [2] turned out to be 5.04 µM. Regarding GGTYSCHFGKLTWVCKKQGG [SEQ ID NO 2: GGTYSCHFGKLTWVCKKQGG], in experiment [2], the “EC50 … (MTT assay)” value came to 3.28 µM.
